Results taken from PMC5482063.

Tests used:
[1] = molecular target: mCherry-optoPlexin (chimera of Cry2 at the amino terminus, mCherry, and the intracellular domain of Plexin-B1 at the C terminus) (not stated | mouse) (UniProt Q96524); experiment: membrane co-recruitment assay (TIRF microscopy); living COS-7 cells co-expressing mVenus-RhoGEF, the mCherry-tagged Cry2 construct and CIB-CAAX; whole-cell blue light; increase of the RhoGEF's fluorescence relative to that of optoPlexin (relative co-recruitment); only cells with at least 30% increase in optoPlexin signal; also with Erlotinib
[2] = molecular target: farnesylated Cryptochrome interacting basic helix-loop-helix 1 (CIB1-CAAX) (UniProt Q8GY61); experiment: light-induced membrane recruitment assay (TIRF microscopy); living COS-7 or MC3T3-E1 cells co-expressing the Cry2 construct and CIB-CAAX; illumination limited to a 5 μm-diameter circle (440 nm); 37 °C
Sequence of UniProt Q8GY61 (Q8GY61 whole entry): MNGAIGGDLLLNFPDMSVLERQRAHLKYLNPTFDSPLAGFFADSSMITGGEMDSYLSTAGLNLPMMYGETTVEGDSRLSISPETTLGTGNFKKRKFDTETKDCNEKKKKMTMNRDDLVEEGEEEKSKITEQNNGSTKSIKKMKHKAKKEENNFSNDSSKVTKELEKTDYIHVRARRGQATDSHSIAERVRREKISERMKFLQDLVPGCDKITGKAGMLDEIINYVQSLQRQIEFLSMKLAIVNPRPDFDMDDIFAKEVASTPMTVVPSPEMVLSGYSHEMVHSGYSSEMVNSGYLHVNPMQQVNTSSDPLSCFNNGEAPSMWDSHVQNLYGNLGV

[3] = molecular target: farnesylated Cryptochrome interacting basic helix-loop-helix 1 (CIB1-CAAX) (UniProt Q8GY61); experiment: light-induced membrane recruitment assay (TIRF microscopy); living COS-7 cells co-expressing the Cry2 construct and CIB1-CAAX at the plasma membrane; whole-cell blue light (440 nm, 50 ms pulses at 10 s intervals); fluorescence after ten pulses normalised to that before illumination; 37 °C

relative co-recruitment (increase in fluorescence relative to that of optoPlexin) [1] [%] | fold increase of TIRF fluorescence intensity (membrane recruitment) [2] [fold] | fold increase of TIRF fluorescence intensity (membrane recruitment) [3] [fold] | Substance
60 |  |  | mVenus-Leukemia-associated RhoGEF (mVenus-LARG) (from UniProt Q9NZN5 1-1544) (natural protein)
 | 4 | 2 | mCherry-optoPlexin (chimera of Cry2 at the amino terminus, mCherry, and the intracellular domain of Plexin-B1 at the C terminus) (from UniProt Q96524 1-612)
26 |  |  | mVenus-PDZ-RhoGEF (mVenus-PRG) (from UniProt O15085 1-1522) (natural protein)
